Experimental data taken from article doi:10.1101/2020.02.18.953257.

Target: human Replication Factor C (hRFC) with RFC1ΔN555 (human) (UniProt P35251)

S228I-PCNA (from UniProt P12004 1-261) (natural protein)
apparent Kd from hRFC ATPase activity as a function of PCNA concentration: 120 nM
